Results on two molecules are retold here after patent US20020164600A1 (Dana-Farber, published 2002).

First the molecules themselves.
B1: IgG2a (control Ig) (other, mouse, UniProt P01863 98-330, looked up)
chain: EPRGPTIKPCPPCKCPAPNLLGGPSVFIFPPKIKDVLMISLSPIVTCVVVDVSEDDPDVQISWFVNNVEVHTAQTQTHREDYNSTLRVVSALPIQHQDWMSGKEFKCKVNNKDLPAPIERTISKPKGSVRAPQVYVLPPPEEEMTKKQVTLTCMVTDFMPEDIYVEWTNNGKTELNYKNTEPVLDSDGSYFMYSKLRVEKKNWVERNSYSCSVVHEGLHNHHTTKSFSRTPGK
notes: Control protein

In test [1] the target is T1, human PD-L2 (human, UniProt Q9BQ51 20-273).
T1 construct: Expressed on transfected COS and 300.19 cells (300-hPD-L2); also called hPD-L2
T1 sequence: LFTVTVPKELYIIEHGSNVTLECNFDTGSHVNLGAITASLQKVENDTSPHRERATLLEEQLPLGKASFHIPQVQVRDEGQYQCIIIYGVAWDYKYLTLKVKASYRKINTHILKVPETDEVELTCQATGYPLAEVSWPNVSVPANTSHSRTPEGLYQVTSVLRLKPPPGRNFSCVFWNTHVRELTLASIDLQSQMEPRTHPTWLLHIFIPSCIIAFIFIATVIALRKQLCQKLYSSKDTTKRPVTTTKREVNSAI
Briefly: FACS on transfected COS cells.

The target in test [2] is B1. Put plainly: FACS on transfected COS cells.

For the molecule B1, the binding result in test [1] is “no binding”.

B2: mouse PD-L2 (ligand)
chain: LFTVTAPKEVYTVDVGSSVSLECDFDRRECTELEGIRASLQKVENDTSLQSERATLLEEQLPLGKALFHIPSVQVRDSGQYRCLVICGAAWDYKYLTVKVKASYMRIDTRILEVPGTGEVQLTCQARGYPLAEVSWQNVSVPANTSHIRTPEGLYQVTSVLRLKPQPSRNFSCMFWNAHMKELTSAIIDPLSRMEPKVPRTWPLHVFIPACTIALIFLAIVIIQRKRI
notes: Expressed on transfected COS, CHO.I-A^d, CHO.I-A^d.B7-2 and 300.19 cells; also called murine PD-L2; mPD-L2
With B2, the binding result in test [2] is “no binding”.
